Tests used:
Assay in all cases: cell-based or functional assay
[1] = biological target: HA molecule (haemagglutinin) of A/Bangkok/10/83 (H1N1) (influenza A virus, H1N1 subtype, strain A/Bangkok/10/83)
[2] = biological target: HA molecule (haemagglutinin) of A/Izumi/5/65 (H2N2) (influenza A virus, H2N2 subtype, strain A/Izumi/5/65)
[3] = biological target: HA molecule (haemagglutinin) of A/Suita/1/90 (H3N2) (influenza A virus, H3N2 subtype, strain A/Suita/1/90)
[4] = biological target: HA molecule (haemagglutinin) of A/Osaka/930/88 (H1N1) (influenza A virus, H1N1 subtype, strain A/Osaka/930/88)
[5] = biological target: HA molecule (haemagglutinin) of A1/FM/1/47 (H1N1) (influenza A virus, H1N1 subtype, strain A1/FM/1/47)
[6] = biological target: HA molecule (haemagglutinin) of A/Kumamoto/1/65 (H2N2) (influenza A virus, H2N2 subtype, strain A/Kumamoto/1/65)
[7] = biological target: HA molecule (haemagglutinin) of influenza B virus B/Nagasaki/1/87 (influenza B virus, strain B/Nagasaki/1/87)
[8] = biological target: HA molecule (haemagglutinin) of A/Yamagata/120/86 (H1N1) (influenza A virus, H1N1 subtype, strain A/Yamagata/120/86)
[9] = biological target: HA molecule (haemagglutinin) of A/Kitakyushu/159/93 (H3N2) (influenza A virus, H3N2 subtype, strain A/Kitakyushu/159/93)
[10] = biological target: HA molecule (haemagglutinin) of A/Kaizuka/2/65 (H2N2) (influenza A virus, H2N2 subtype, strain A/Kaizuka/2/65)
[11] = biological target: HA molecule (haemagglutinin) of A/Fukuoka/C29/85 (H3N2) (influenza A virus, H3N2 subtype, strain A/Fukuoka/C29/85)
[12] = biological target: HA molecule (haemagglutinin) of A2/Aichi/2/68 (H3N2) (influenza A virus, H3N2 subtype, strain A2/Aichi/2/68)
[13] = biological target: HA molecule (haemagglutinin) of A/Ibaraki/1/90 (H3N2) (influenza A virus, H3N2 subtype, strain A/Ibaraki/1/90)
[14] = biological target: HA molecule (haemagglutinin) of A/Adachi/2/57 (H2N2) (influenza A virus, H2N2 subtype, strain A/Adachi/2/57)
[15] = biological target: HA molecule (haemagglutinin) of A/Sichuan/2/87 (H3N2) (influenza A virus, H3N2 subtype, strain A/Sichuan/2/87)
[16] = biological target: HA molecule (haemagglutinin) of A/PR/8/34 (H1N1) (influenza A virus, H1N1 subtype, strain …, UniProt P03452 18-565)
Sequence of HA molecule (haemagglutinin) of A/PR/8/34 (H1N1) (P03452 18-565): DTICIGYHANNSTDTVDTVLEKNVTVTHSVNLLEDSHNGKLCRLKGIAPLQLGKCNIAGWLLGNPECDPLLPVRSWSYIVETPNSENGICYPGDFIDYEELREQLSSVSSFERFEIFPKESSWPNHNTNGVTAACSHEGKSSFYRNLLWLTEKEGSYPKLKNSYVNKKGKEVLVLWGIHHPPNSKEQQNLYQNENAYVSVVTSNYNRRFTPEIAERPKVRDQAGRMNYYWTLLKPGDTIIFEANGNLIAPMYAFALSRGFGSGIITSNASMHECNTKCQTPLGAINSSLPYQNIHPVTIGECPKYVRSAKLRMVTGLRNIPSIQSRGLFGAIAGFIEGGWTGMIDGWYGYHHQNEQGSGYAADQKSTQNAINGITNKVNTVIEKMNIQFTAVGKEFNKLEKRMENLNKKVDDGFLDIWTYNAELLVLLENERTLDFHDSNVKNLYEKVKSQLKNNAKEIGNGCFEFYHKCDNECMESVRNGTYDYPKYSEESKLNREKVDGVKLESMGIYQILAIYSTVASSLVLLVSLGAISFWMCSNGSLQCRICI

Molecule	HI (hemagglutination inhibition titer) (fold dilution of the ascites fluid) [1]	HI (hemagglutination inhibition titer) (fold dilution of the ascites fluid) [2]	HI (hemagglutination inhibition titer) (fold dilution of the ascites fluid) [3]	HI (hemagglutination inhibition titer) (fold dilution of the ascites fluid) [4]	HI (hemagglutination inhibition titer) (fold dilution of the ascites fluid) [5]	HI (hemagglutination inhibition titer) (fold dilution of the ascites fluid) [6]	HI (hemagglutination inhibition titer) (fold dilution of the ascites fluid) [7]	HI (hemagglutination inhibition titer) (fold dilution of the ascites fluid) [8]	HI (hemagglutination inhibition titer) (fold dilution of the ascites fluid) [9]	HI (hemagglutination inhibition titer) (fold dilution of the ascites fluid) [10]	HI (hemagglutination inhibition titer) (fold dilution of the ascites fluid) [11]	HI (hemagglutination inhibition titer) (fold dilution of the ascites fluid) [12]	HI (hemagglutination inhibition titer) (fold dilution of the ascites fluid) [13]	HI (hemagglutination inhibition titer) (fold dilution of the ascites fluid) [14]	HI (hemagglutination inhibition titer) (fold dilution of the ascites fluid) [15]	HI (hemagglutination inhibition titer) [16]
monoclonal antibody C179	< 32	< 32	< 32	< 32	< 32	< 32	< 32	< 32	< 32	< 32	< 32	< 32	< 32	< 32	< 32	–
monoclonal antibody C179 (antibody) chain 1: EVKLVESGGGLVQPGGSLRLSCGTSGFTLTDDYMTWVRQPPGKALEWLGFIRDRANGYTTEYSASVKGRFTISRDNSQSIVYLQMNTLRVEDSATYYCARPKGYFPYAMDYWGQGT chain 2: DIQMTQSPASQSASLGESVTITCLASQTIGTWLAWYQQKPGKSPQLLIYAATSLADGVPSRFSGSGSGTKFSFKISSLQAEDFVSYYCQQLYSTPW	–	–	–	–	–	–	–	–	–	–	–	–	–	–	–	< 32 fold dilution of the ascites fluid

— patent publication EP0621339B1 (TAKARA SHUZO CO. LTD., dated 2001)
